Reference: patent US20150023967A1 (published 2015)

Key:
BCMA 101 x CD3 = assay: SPR (Biacore)
BCMA 102 x CD3 = assay: SPR (Biacore)

B1: Human BCMA (other)
chain (part 1 of 2): MLQMAGQCSQNEYFDSLLHACIPCQLRCSSNTPPLTCQRYCNASVTNSVKGTNASGGGGSEAHKSEIAHRYNDLGEQHFKGLVLIAFSQYLQKCSYDEHAKLVQEVTDFAKTCVADESAANCDKSLHTLFGDKLCAIPNLRENYGELADCCTKQEPERNECFLQHKDDNPSLPPFERPEAEAMCTSFKENPTTFMGHYLHEVARRHPYFYAPELLYYAEQYNEILTQCCAEADKESCLTPKLDGVKEKALVSSVRQRMKCSSMQKFGERAFKAWAVARLSQTFPNADFAEITKLATDLTKVNKECCHGDLLECADDRAELAKYMCENQATISSKLQTCCDKPLLKKAHCLSEVEHDTMPADLPAIAADFVEDQEVCKNYAEAKDVFLGTFLYEYSRRHPDYSVSLLLRLAKKYEATLEKCCAEANPPACYGTVLAEFQPLVEEPKNLVKTNCDLYEKLGEYGFQNAILVRYTQKAPQVSTPTLVEAARNLGRVGTKCCTLPEDQRLPCVEDYLSAILNRVCLLHEKTPVSEHVTKCCSGSLVERRPCFSALTVDETYVPKEFKAETFTFHSDICTLPEKEKQIKKQTALAELVKHKPKATAEQLKTVMDDFAQFLDTCCKAADKDTCFSTEGPNLVTRCKDALA
chain (part 2 of 2): SGHHGGHHGGHH
Kd (BCMA 101 x CD3): 500 pM | Kd (BCMA 102 x CD3): 600 pM
